Assay results: patent US9809833B2, “Pathways to adipate semialdehyde and other organic products” (BioAmber Inc., priority 2012, dated 2017)

B1: bktB: Beta-ketothiolase, E. coli optimized bktB sequence originally from Cupriavidus necator ATCC 17699, SEQ ID NOS 1 and 2 (protein)
chain: MTREVVVVSGVRTAIGTFGGSLKDVAPAELGALVVREALARAQVSGDDVGHVVFGNVIQTEPRDMYLGRVAAVNGGVTINAPALTVNRLCGSGLQAIVSAAQTILLGDTDVAIGGGAESMSRAPYLAPAARWGARMGDAGLVDMMLGALHDPFHRIHMGVTAENVAKEYDISRAQQDEAALESHRRASAAIKAGYFKDQIVPVVSKGRKGDVTFDTDEHVRHDATIDDMTKLRPVFVKENGTVTAGNASGLNDAAAAVVMMERAEAERRGLKPLARLVSYGHAGVDPKAMGIGPVPATKIALERAGLQVSDLDVIEANEAFAAQACAVTKALGLDPAKVNPNGSGISLGHPIGATGALITVKALHELNRVQGRYALVTMCIGGGQGIAAIFERI
modifications: Cupriavidus necator
B2: phaA: acyltransferase, E. coli optimized PhaA sequence originally from Ralstonia sp., EC 2.3.1.9, SEQ ID NOS 3 and 4 (protein)
chain: MTDVVIVSAARTAVGKFGGSLAKIPAPELGAVVIKAALERAGVKPEQVSEVIMGQVLTAGSGQNPARQAAIKAGLPAMVPAMTINKVCGSGLKAVMLAANAIMAGDAEIVVAGGQENMSAAPHVLPGSRDGFRMGDAKLVDTMIVDGLWDVYNQYHMGITAENVAKEYGITREAQDEFAVGSQNKAEAAQKAGKFDEEIVPVLIPQRKGDPVAFKTDEFVRQGATLDSMSGLKPAFDKAGTVTAANASGLNDGAAAVVVMSAAKAKELGLTPLATIKSYANAGVDPKVMGMGPVPASKRALSRAEWTPQDLDLMEINEAFAAQALAVHQQMGWDTSKVNVNGGAIAIGHPIGASGCRILVTLLHEMKRRDAKKGLASLCIGGGMGVALAVERK
modifications: Ralstonia sp., strain EMBL EON20543.1

Legend:
[1] = In vitro DTNB thiolase activity assay on clarified cell lysates, butyryl-CoA substrate; assay type: biochemical; conditions: lysate of BL21 E. coli expressing the thiolase; 0.5 mM butyryl-CoA, 0.2 mM acetyl-coA, 0.5 mM DTNB, pH 7.4, 412 nm; no-substrate background subtracted; triplicate
Protocol: (§1) Plasmids containing the optimized thiolase genes were transformed into BL21 E. coli cells. Empty plasmid pTrcHisA was also transformed as a negative control. For expression and characterization experiments, shake flasks containing 40 mL TB were innoculated at 5% from overnight cultures. Flasks were incubated at 30° C. at 250 rpm shaking for 2 hours, then protein production was induced with 0.2 mM IPTG and incubated for 4 more hours at 30° C. while shaking. Cells were harvested by centrifugation and pellets were stored at −80° C.
(§2) Activity of thiolase candidates were assessed with an in vitro assay using DTNB (5,5′-Dithiobis(2-nitrobenzoic acid)) as an indicator. The enzyme activity was tested using two different substrates: crotonoyl-CoA and butyryl-CoA. The DTNB interacts with the free thiol created by the condensation of acetyl-CoA and the substrate present (butyryl-CoA or crotonoyl-CoA). Unless otherwise specified, all chemicals were purchased from Sigma-Aldrich Chemical Company, ST. Louis, Mo.
(§3) Cells were lysed using mechanical disruption using a BeadBeater (BioSpec products, Bartlesville, Okla.) using the manufacturer's instructions. The cell lysate was partially clarified by centrifugation (14,000 G for 5 minutes). Protein concentrations of the resulting clarified lysates were measured via BioRad Total Protein assay using the manufacturer's instructions. Lysates were normalized by protein concentration by dilution in 10 mM Tris buffer. The normalized lysates were diluted 1 to 5 in 10 mM Tris buffer. 20 ul of lysate was added to each well for the 96-well plate assay. Each condition was performed in triplicate.
(§4) The reaction mixture contains 10 mM Tris pH 7.4, 5 mM MgSO4, 0.2 mM acetyl-coA, 0.5 mM DTNB, 0.5 mM substrate (either butyryl-CoA or crotonoyl-CoA). […] The reactions in these microplates were monitored at 412 nm. Readings were taken every 9 seconds for 5 minutes and the data was used to calculate activities of each enzyme. The reactions using crotonoyl-CoA as substrate required a 60 sec incubation period before rates were able to be measured.

[2] = In vitro DTNB thiolase activity assay on clarified cell lysates, crotonoyl-CoA substrate; assay type: biochemical; conditions: lysate of BL21 E. coli expressing the thiolase; 0.5 mM crotonoyl-CoA, 0.2 mM acetyl-coA, 0.5 mM DTNB, pH 7.4, 412 nm; 60 sec incubation before measurement; no-substrate background subtracted; triplicate
Protocol: as §1, §2, §3, §4

Row | Molecule | Average Activity with background subtracted, Butyryl coenzyme A [1] [µmol/min/mg] | Average Activity with background subtracted, Crotonoyl coenzyme A [2] [µmol/min/mg]
1 | thl: acetyl-CoA acetyltransferase, E. coli optimized thl sequence originally from Clostridium acetobutylicum ATCC 824, SEQ ID NOS 5 and 6 | 0.039 | 0.0021
2 | B1 | 0.069 | 0.0043
3 | B2 | 0.053 | 0.0001
